Several values for one entry are separate records, joined by “and”; a condition that tells them apart may be missing. Equal entries are not always repeated.
Columns and labels:
[1] = biological target: pathological hyperphosphorylated tau from human Alzheimer's disease brain, sarkosyl-insoluble P3 fraction (human) (UniProt P10636); experiment: MSD, AD-P3 coated plate (FIG. 34); C10-2 3 ng/ml + 10 µM tau peptide as competitor
[2] = biological target: pathological hyperphosphorylated tau from human Alzheimer's disease brain, sarkosyl-insoluble P3 fraction (human) (UniProt P10636); experiment: MSD ELISA on immobilised P3 tau; ratio of binding to AD over healthy control at saturation
[3] = biological target: pathological hyperphosphorylated tau from human Alzheimer's disease brain, sarkosyl-insoluble P3 fraction (human) (UniProt P10636); experiment: fluid phase MSD ELISA: inhibition of tau antigen capture
[4] = biological target: pathological hyperphosphorylated tau from human Alzheimer's disease brain, sarkosyl-insoluble P3 fraction (human) (UniProt P10636); experiment: MSD, AD-P3 coated plate (FIG. 34); C10-2 100 ng/ml + PBS/0.1% BSA (no competitor)
[5] = biological target: pathological hyperphosphorylated tau from human Alzheimer's disease brain, sarkosyl-insoluble P3 fraction (human) (UniProt P10636); experiment: fluid phase MSD ELISA: inhibition of AD-P3 tau antigen capture
[6] = biological target: pathological hyperphosphorylated tau from human Alzheimer's disease brain, sarkosyl-insoluble P3 fraction (human) (UniProt P10636); experiment: MSD, AD-P3 coated plate (FIG. 34); C10-2 10000 ng/ml + 10 µM tau peptide as competitor
[7] = biological target: pathological hyperphosphorylated tau from human Alzheimer's disease brain, sarkosyl-insoluble P3 fraction (human) (UniProt P10636); experiment: fluid phase inhibition of p-tau antigen capture in mC10-2 coated plate (comparison with PHF-13)
[8] = biological target: pathological hyperphosphorylated tau from human Alzheimer's disease brain, sarkosyl-insoluble P3 fraction (human) (UniProt P10636); experiment: fluid phase MSD ELISA: antibody mixed with AD P3 in solution, capture on C10-2 coated plates
[9] = biological target: pathological hyperphosphorylated tau from human Alzheimer's disease brain, sarkosyl-insoluble P3 fraction (human) (UniProt P10636); experiment: MSD, AD-P3 coated plate (FIG. 34); C10-2 30 ng/ml + 10 µM tau peptide as competitor
[10] = biological target: hyperphosphorylated tau phosphorylated at serine 396 in human Alzheimer brain (extracts and sections) (human) (UniProt P10636); experiment: immunodepletion of Alzheimer brain extract; western blot; compared to hHel control antibody
[11] = biological target: pathological hyperphosphorylated tau from human Alzheimer's disease brain, sarkosyl-insoluble P3 fraction (human) (UniProt P10636); experiment: MSD, AD-P3 coated plate (FIG. 34); C10-2 1000 ng/ml + 10 µM tau peptide as competitor
[12] = biological target: pathological hyperphosphorylated tau from human Alzheimer's disease brain, sarkosyl-insoluble P3 fraction (human) (UniProt P10636); experiment: MSD, AD-P3 coated plate (FIG. 34); C10-2 3 ng/ml + PBS/0.1% BSA (no competitor)
[13] = biological target: hyperphosphorylated tau phosphorylated at serine 396 in human Alzheimer brain (extracts and sections) (human) (UniProt P10636); experiment: immunodepletion of Alzheimer brain extract with antibody on Protein G Dynabeads; western blot
[14] = biological target: pathological hyperphosphorylated tau from human Alzheimer's disease brain, sarkosyl-insoluble P3 fraction (human) (UniProt P10636); experiment: MSD, AD-P3 coated plate (FIG. 34); C10-2 10 ng/ml + PBS/0.1% BSA (no competitor)
[15] = biological target: pathological hyperphosphorylated tau from human Alzheimer's disease brain, sarkosyl-insoluble P3 fraction (human) (UniProt P10636); experiment: MSD, AD-P3 coated plate (FIG. 34); C10-2 300 ng/ml + PBS/0.1% BSA (no competitor)
[16] = biological target: pathological hyperphosphorylated tau from human Alzheimer's disease brain, sarkosyl-insoluble P3 fraction (human) (UniProt P10636); experiment: MSD, AD-P3 coated plate (FIG. 34); C10-2 10 ng/ml + 10 µM tau peptide as competitor
[17] = biological target: pathological hyperphosphorylated tau from human Alzheimer's disease brain, sarkosyl-insoluble P3 fraction (human) (UniProt P10636); experiment: MSD, AD-P3 coated plate (FIG. 34); C10-2 100 ng/ml + 10 µM tau peptide as competitor
[18] = biological target: pathological hyperphosphorylated tau from human Alzheimer's disease brain, sarkosyl-insoluble P3 fraction (human) (UniProt P10636); experiment: fluid phase inhibition of Ptau antigen capture in C10-2 coated plate (comparison with mD1.2)
[19] = biological target: pathological hyperphosphorylated tau from human Alzheimer's disease brain, sarkosyl-insoluble P3 fraction (human) (UniProt P10636); experiment: MSD, AD-P3 coated plate (FIG. 34); C10-2 10000 ng/ml + PBS/0.1% BSA (no competitor)
[20] = biological target: pathological hyperphosphorylated tau from human Alzheimer's disease brain, sarkosyl-insoluble P3 fraction (human) (UniProt P10636); experiment: MSD, AD-P3 coated plate (FIG. 34); C10-2 1000 ng/ml + PBS/0.1% BSA (no competitor)
[21] = biological target: pathological hyperphosphorylated tau from human Alzheimer's disease brain, sarkosyl-insoluble P3 fraction (human) (UniProt P10636); experiment: MSD, AD-P3 coated plate (FIG. 34); C10-2 30 ng/ml + PBS/0.1% BSA (no competitor)
[22] = biological target: pathological hyperphosphorylated tau from human Alzheimer's disease brain, sarkosyl-insoluble P3 fraction (human) (UniProt P10636); experiment: MSD, AD-P3 coated plate (FIG. 34); C10-2 300 ng/ml + 10 µM tau peptide as competitor
[23] = biological target: pathological hyperphosphorylated tau from human Alzheimer's disease brain, sarkosyl-insoluble P3 fraction (human) (UniProt P10636); experiment: MSD, AD-P3 coated plate (FIG. 34); PHF 13 at '1000' (unit inferred) + 10 µM tau peptide as competitor
[24] = biological target: pathological hyperphosphorylated tau from human Alzheimer's disease brain, sarkosyl-insoluble P3 fraction (human) (UniProt P10636); experiment: MSD, AD-P3 coated plate (FIG. 34); PHF 13 at '30000' (unit inferred) + PBS/0.1% BSA (no competitor)
[25] = biological target: pathological hyperphosphorylated tau from human Alzheimer's disease brain, sarkosyl-insoluble P3 fraction (human) (UniProt P10636); experiment: MSD, AD-P3 coated plate (FIG. 34); PHF 13 at '300000' (unit inferred) + PBS/0.1% BSA (no competitor)
[26] = biological target: pathological hyperphosphorylated tau from human Alzheimer's disease brain, sarkosyl-insoluble P3 fraction (human) (UniProt P10636); experiment: MSD, AD-P3 coated plate (FIG. 34); PHF 13 at '3000' (unit inferred) + PBS/0.1% BSA (no competitor)
[27] = biological target: pathological hyperphosphorylated tau from human Alzheimer's disease brain, sarkosyl-insoluble P3 fraction (human) (UniProt P10636); experiment: MSD, AD-P3 coated plate (FIG. 34); PHF 13 at '1000000' (unit inferred) + PBS/0.1% BSA (no competitor)
[28] = biological target: pathological hyperphosphorylated tau from human Alzheimer's disease brain, sarkosyl-insoluble P3 fraction (human) (UniProt P10636); experiment: MSD, AD-P3 coated plate (FIG. 34); PHF 13 at '3000' (unit inferred) + 10 µM tau peptide as competitor
[29] = biological target: pathological hyperphosphorylated tau from human Alzheimer's disease brain, sarkosyl-insoluble P3 fraction (human) (UniProt P10636); experiment: MSD, AD-P3 coated plate (FIG. 34); PHF 13 at '100000' (unit inferred) + PBS/0.1% BSA (no competitor)
[30] = biological target: pathological hyperphosphorylated tau from human Alzheimer's disease brain, sarkosyl-insoluble P3 fraction (human) (UniProt P10636); experiment: MSD, AD-P3 coated plate (FIG. 34); PHF 13 at '100000' (unit inferred) + 10 µM tau peptide as competitor
[31] = biological target: pathological hyperphosphorylated tau from human Alzheimer's disease brain, sarkosyl-insoluble P3 fraction (human) (UniProt P10636); experiment: MSD, AD-P3 coated plate (FIG. 34); PHF 13 at '10000' (unit inferred) + PBS/0.1% BSA (no competitor)
[32] = biological target: pathological hyperphosphorylated tau from human Alzheimer's disease brain, sarkosyl-insoluble P3 fraction (human) (UniProt P10636); experiment: MSD, AD-P3 coated plate (FIG. 34); PHF 13 at '30000' (unit inferred) + 10 µM tau peptide as competitor
[33] = biological target: pathological hyperphosphorylated tau from human Alzheimer's disease brain, sarkosyl-insoluble P3 fraction (human) (UniProt P10636); experiment: MSD, AD-P3 coated plate (FIG. 34); PHF 13 at '1000000' (unit inferred) + 10 µM tau peptide as competitor
[34] = biological target: pathological hyperphosphorylated tau from human Alzheimer's disease brain, sarkosyl-insoluble P3 fraction (human) (UniProt P10636); experiment: MSD, AD-P3 coated plate (FIG. 34); PHF 13 at '300000' (unit inferred) + 10 µM tau peptide as competitor
[35] = biological target: pathological hyperphosphorylated tau from human Alzheimer's disease brain, sarkosyl-insoluble P3 fraction (human) (UniProt P10636); experiment: fluid phase inhibition of p-tau antigen capture in mC10-2 coated plate
[36] = biological target: pathological hyperphosphorylated tau from human Alzheimer's disease brain, sarkosyl-insoluble P3 fraction (human) (UniProt P10636); experiment: MSD, AD-P3 coated plate (FIG. 34); PHF 13 at '10000M' (unit not explained) + 10 µM tau peptide as competitor
[37] = biological target: pathological hyperphosphorylated tau from human Alzheimer's disease brain, sarkosyl-insoluble P3 fraction (human) (UniProt P10636); experiment: MSD, AD-P3 coated plate (FIG. 34); PHF 13 at '1000' (unit inferred) + PBS/0.1% BSA (no competitor)
[38] = biological target: normal P301L mutant human 4R0N tau from rTg4510 mouse brain (55 kDa band) (human) (UniProt P10636); experiment: immunodepletion of rTg4510 brain extracts; western blot quantification (FIG. 14)
[39] = biological target: aggregated Tau in Alzheimer brain extract (Cisbio assay) (human) (UniProt P10636); experiment: immunodepletion of AD extract; Cisbio tau aggregation assay; in comparison to hHel antibody
[40] = biological target: hyperphosphorylated tau phosphorylated at serine 396 in human Alzheimer brain (extracts and sections) (human) (UniProt P10636); experiment: immunodepletion of Alzheimer brain extract; western blot
[41] = biological target: total tau in Alzheimer brain extract (human) (UniProt P10636); experiment: as above
[42] = biological target: hyper-phosphorylated P301L mutant human 4R0N tau from rTg4510 mouse brain (64 and 70 kDa species; P3 / brain extract) (human) (UniProt P10636); experiment: MSD ELISA on immobilised P3; ratio of binding to Tg4510 over wt mouse material
Chain of hyper-phosphorylated P301L mutant human 4R0N tau from rTg4510 mouse brain (64 and 70 kDa species; P3 / brain extract) (human) (P10636 other isoform, or with tags, fused parts or gaps P301L P301L): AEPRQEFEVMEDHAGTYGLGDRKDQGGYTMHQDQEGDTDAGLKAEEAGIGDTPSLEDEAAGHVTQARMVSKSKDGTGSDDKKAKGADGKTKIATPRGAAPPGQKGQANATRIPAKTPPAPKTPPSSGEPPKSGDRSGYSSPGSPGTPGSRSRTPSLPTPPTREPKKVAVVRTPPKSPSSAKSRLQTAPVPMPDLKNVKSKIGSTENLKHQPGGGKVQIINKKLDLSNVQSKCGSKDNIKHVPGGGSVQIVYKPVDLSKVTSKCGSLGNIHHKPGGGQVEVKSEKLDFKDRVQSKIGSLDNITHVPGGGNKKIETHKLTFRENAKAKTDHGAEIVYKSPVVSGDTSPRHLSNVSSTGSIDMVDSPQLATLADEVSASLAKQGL

Chain of HJ8.5 (antibody) (VH): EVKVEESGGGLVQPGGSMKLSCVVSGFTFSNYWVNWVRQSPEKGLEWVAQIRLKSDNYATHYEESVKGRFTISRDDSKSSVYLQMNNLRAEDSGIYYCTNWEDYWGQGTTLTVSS
Chain of HJ8.5 (antibody) (VL): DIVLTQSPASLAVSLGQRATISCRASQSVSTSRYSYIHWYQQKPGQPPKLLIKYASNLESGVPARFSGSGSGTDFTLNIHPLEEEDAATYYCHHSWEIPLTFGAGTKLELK
Chain of hyperphosphorylated tau phosphorylated at serine 396 in human Alzheimer brain (extracts and sections) (human) (P10636 other isoform, or with tags, fused parts or gaps limits assumed): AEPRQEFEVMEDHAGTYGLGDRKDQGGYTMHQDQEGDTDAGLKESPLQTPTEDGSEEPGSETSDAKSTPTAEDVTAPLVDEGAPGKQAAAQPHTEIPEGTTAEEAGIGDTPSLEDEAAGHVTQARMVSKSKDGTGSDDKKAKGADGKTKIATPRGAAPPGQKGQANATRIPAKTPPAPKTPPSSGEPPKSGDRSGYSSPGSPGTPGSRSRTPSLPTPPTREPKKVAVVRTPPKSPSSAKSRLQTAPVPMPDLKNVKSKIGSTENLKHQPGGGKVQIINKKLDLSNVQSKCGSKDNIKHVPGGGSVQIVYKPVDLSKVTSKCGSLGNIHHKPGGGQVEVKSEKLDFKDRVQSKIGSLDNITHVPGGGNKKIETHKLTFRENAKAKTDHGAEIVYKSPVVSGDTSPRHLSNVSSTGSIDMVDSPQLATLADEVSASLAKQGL
Chain of pathological hyperphosphorylated tau from human Alzheimer's disease brain, sarkosyl-insoluble P3 fraction (human) (P10636 other isoform, or with tags, fused parts or gaps limits assumed): as above
Chain of aggregated Tau in Alzheimer brain extract (Cisbio assay) (human) (P10636 other isoform, or with tags, fused parts or gaps limits assumed): as above
Chain of total tau in Alzheimer brain extract (human) (P10636 other isoform, or with tags, fused parts or gaps limits assumed): as above
Chain of normal P301L mutant human 4R0N tau from rTg4510 mouse brain (55 kDa band) (human) (P10636 other isoform, or with tags, fused parts or gaps P301L P301L): as the sequence (P10636 other isoform, or with tags, fused parts or gaps P301L P301L) above

Antibody C10-2 (murine)
mean Signal [1]: 366 signal | signal [1]: 384 signal and 348 signal | AD/ctrl [2]: > 100 fold | IC50 [3]: 320 nM | mean Signal [4]: 21800 signal | signal [4]: 21900 signal and 21700 signal | IC50 [5]: 3 nM | mean Signal [6]: 870 signal | signal [6]: 920 signal and 820 signal | IC50 [7]: 10 to 20 nM | IC50 [8]: 3 nM | mean Signal [9]: 345 signal | signal [9]: 384 signal and 306 signal | percent removed by immunodepletion [10]: 93% | mean Signal [11]: 451 signal | signal [11]: 462 signal and 439 signal | mean Signal [12]: 1880 signal | signal [12]: 1890 signal and 1870 signal | percent removed by immunodepletion [13]: 90% | mean Signal [14]: 5720 signal | signal [14]: 5860 signal and 5580 signal | mean Signal [15]: 30400 signal | signal [15]: 30300 signal and 30500 signal | mean Signal [16]: 383 signal | signal [16]: 398 signal and 367 signal | mean Signal [17]: 357 signal | signal [17]: 401 signal and 313 signal | IC50 [18]: 10 to 20 nM | mean Signal [19]: 51200 signal | signal [19]: 51300 signal and 51100 signal | mean Signal [20]: 38500 signal | signal [20]: 38200 signal and 38800 signal | mean Signal [21]: 11900 signal | signal [21]: 12000 signal and 11800 signal | mean Signal [22]: 407 signal | signal [22]: 434 signal and 379 signal

PHF13 (commercially available antibody for Tau phosphorylated at Ser 396)
mean Signal [23]: 6900 signal | signal [23]: 7540 signal and 6250 signal | mean Signal [24]: 1580 signal | signal [24]: 1660 signal and 1500 signal | mean Signal [25]: 560 signal | signal [25]: 568 signal and 551 signal | mean Signal [26]: 5790 signal | signal [26]: 6130 signal and 5460 signal | mean Signal [27]: 335 signal | signal [27]: 358 signal and 312 signal | mean Signal [28]: 2180 signal | signal [28]: 2280 signal and 2080 signal | mean Signal [29]: 852 signal | signal [29]: 856 signal and 847 signal | mean Signal [30]: 355 signal | signal [30]: 370 signal and 340 signal | mean Signal [31]: 2880 signal | signal [31]: 2900 signal and 2860 signal | mean Signal [32]: 481 signal | signal [32]: 472 signal and 490 signal | mean Signal [33]: 280 signal | signal [33]: 284 signal and 276 signal | mean Signal [34]: 299 signal | signal [34]: 305 signal and 292 signal | IC50 [35]: 500 to 1000 nM | mean Signal [36]: 953 signal | signal [36]: 1020 signal and 886 signal | mean Signal [37]: 12600 signal | signal [37]: 13700 signal and 11600 signal

Tau5 (commercial total Tau antibody, Invitrogen)
percent reduction of the 55 kDa band [38]: 74%

HJ8.5 (antibody)
AD/ctrl [2]: 3 fold | percent of aggregated Tau removed [39]: 99% | percent removed by immunodepletion [40]: 88% | percent removed by immunodepletion [41]: 89% | TG/wt [42]: 51 fold
